# According to patent US20220323445A1, “REDUCING IMMUNOGENICITY TO PEGLOTICASE” (Horizon Therapeutics Ireland DAC, priority 2020, published 2022):
# B1: pegloticase (protein)
# chain: TYKKNDEVEFVRTGYGKDMIKVLHIQRDGKYHSIKEVATTVQLTLSSKKDYLHGDNSDVIPTDTIKNTVNVLAKFKGIKSIETFAVTICEHFLSSFKHVIRAQVYVEEVPWKRFEKNGVKHVHAFIYTPTGTHFCEVEQIRNGPPVIHSGIKDLKVLKTTQSGFEGFIKDQFTTLPEVKDRCFATQVYCKWRYHQGRDVDFEATWDTVRSIVLQKFAGPYDKGEYSPSVQKTLYDIQVLTLGQVPEIEDMEISLPNIHYLNIDMSKMGLINKEEVLLPLDNPYGKITGTVKRKLSSRL
# modifications: monomethoxy PEG conjugated; Krystexxa Sequence
# notes: covalent conjugate of uricase produced by a genetically modified strain of Escherichia coli and monomethoxypoly (ethylene glycol)
# What was measured:
# [1] = test system: plasma urate; conditions: doses of 4 to 12 mg; within 24 to 72 hours; from 11.1±0.6 mg/dL; cited from earlier work
# [2] = test system: anti-pegloticase antibodies; conditions: cited from earlier work
# [3] = Stability of pegloticase diluted in infusion bags; assay type: physicochemical; conditions: at 2° C. to 8° C. and at room temperature (20° C. to 25° C.); 0.45% or 0.9% Sodium Chloride
# Method: Preparation—Vials were visually inspected for particulate matter and discoloration before administration, whenever solution and container permit. Vials were not used if either was present. Using appropriate aseptic technique, 1 mL of pegloticase was withdrawn from the vial into a sterile syringe. Any unused portion of product remaining in the vial was discarded. Syringe contents were injected into a single 250 mL bag of 0.45% or 0.9% Sodium Chloride Injection, United States Pharmacopeia (USP) for IV infusion and was not mixed or diluted with other drugs. The infusion bag containing the dilute pegloticase solution was inverted several times, but not shaken, to ensure thorough mixing.
# Pegloticase diluted in infusion bags was stable for 4 hours at 2° C. to 8° C. (36° F. to 46° F.) and at room temperature (20° C. to 25° C., 68° F. to 77° F.); however, the diluted solution was stored under refrigeration, not frozen, protected from light, and used within 4 hours of dilution. Before administration, the diluted solution of pegloticase was allowed to reach room temperature. Pegloticase in a vial or IV infusion fluid was never subjected to artificial heating.
molecule,measurement,setting,value
B1,"plasma urate concentration (pUAc) after dosing, mean±SD",[1],1.0±0.5 mg/dL
same,patients with antibody titer exceeding 1:2430 at any time who maintained a response,[2]; 7 of 65 patients,10.8%
same,patients with antibody titers exceeding 1:2430 who developed IRs,[2]; 31 of 52 patients,60%
same,patients who never had an antibody titer above 1:2430 (comparison for maintained response),[2]; 58/65,89.2%
same,participants with high antibody titers who maintained a response (serum urate <6 mg/dL),[2]; second study,1 of 52 participants
same,stability of pegloticase diluted in infusion bags,[3],4 h
